# From article PMC11484851, “Structure of endothelin ETB receptor–Gi complex in a conformation stabilized by unique NPxxL motif” (Communications Biology, 2024)
# Legend:
# [1] = molecular target: wild-type ETB receptor, Flag-tagged, expressed in HEK293A cells (human) (UniProt P24530)
# [2] = molecular target: Flag-tagged wild-type endothelin type B receptor (ETBR) (human) (UniProt P24530)
# [3] = molecular target: ETBR H314A (human) (UniProt P24530)
# [4] = molecular target: ETBR K391A (human) (UniProt P24530)
# [5] = molecular target: ETBR M296A (human) (UniProt P24530)
# [6] = molecular target: ETBR M300A (human) (UniProt P24530)
# [7] = molecular target: ETBR N134A (human) (UniProt P24530)
# [8] = molecular target: ETBR R318A (human) (UniProt P24530)
# [9] = molecular target: ETBR S390A (human) (UniProt P24530)
# [10] = molecular target: ETBR T324A (human) (UniProt P24530)
# [11] = molecular target: ETBR V325A (human) (UniProt P24530)
# [12] = molecular target: ETBR V389A (human) (UniProt P24530)
# Chain of ETBR V389A (human) (P24530 27-442 V389A): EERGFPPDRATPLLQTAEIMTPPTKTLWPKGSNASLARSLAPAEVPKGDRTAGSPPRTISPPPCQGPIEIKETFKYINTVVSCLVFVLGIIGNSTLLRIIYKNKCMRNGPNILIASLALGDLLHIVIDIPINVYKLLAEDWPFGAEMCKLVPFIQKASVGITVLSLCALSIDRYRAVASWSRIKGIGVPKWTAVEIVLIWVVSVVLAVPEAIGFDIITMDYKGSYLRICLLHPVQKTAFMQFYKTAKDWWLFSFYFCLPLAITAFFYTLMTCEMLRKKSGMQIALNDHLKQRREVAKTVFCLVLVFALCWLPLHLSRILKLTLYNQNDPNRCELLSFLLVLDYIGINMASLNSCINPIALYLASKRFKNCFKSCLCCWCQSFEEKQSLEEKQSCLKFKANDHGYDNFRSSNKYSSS
# Chain of LgBiT-inserted Gαi1, wild type (NanoBiT G-protein construct) (P63096 whole entry): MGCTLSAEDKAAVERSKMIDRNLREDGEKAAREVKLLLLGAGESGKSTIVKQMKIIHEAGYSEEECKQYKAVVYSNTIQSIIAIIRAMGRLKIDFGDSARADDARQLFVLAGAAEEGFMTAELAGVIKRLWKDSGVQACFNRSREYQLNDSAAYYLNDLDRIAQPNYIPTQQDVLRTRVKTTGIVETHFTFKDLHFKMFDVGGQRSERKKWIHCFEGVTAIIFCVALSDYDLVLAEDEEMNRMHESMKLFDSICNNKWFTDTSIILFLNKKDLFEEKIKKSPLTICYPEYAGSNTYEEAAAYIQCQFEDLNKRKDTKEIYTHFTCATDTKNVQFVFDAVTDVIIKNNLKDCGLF
# Chain of Flag-tagged wild-type endothelin type B receptor (ETBR) (human) (P24530 27-442): as the sequence (P24530 27-442 V389A) above, with A363V counted along it
# Chain of wild-type ETB receptor, Flag-tagged, expressed in HEK293A cells (human) (P24530 27-442): as the sequence (P24530 27-442 V389A) above, with A363V counted along it
# Chain of ETBR K391A (human) (P24530 27-442 K391A): as the sequence (P24530 27-442 V389A) above, with A363V, K365A counted along it
# Chain of ETBR N134A (human) (P24530 27-442 N134A): as the sequence (P24530 27-442 V389A) above, with N108A, A363V counted along it
# Chain of ETBR M300A (human) (P24530 27-442 M300A): as the sequence (P24530 27-442 V389A) above, with M274A, A363V counted along it
# Chain of ETBR H314A (human) (P24530 27-442 H314A): as the sequence (P24530 27-442 V389A) above, with H288A, A363V counted along it
# Chain of ETBR S390A (human) (P24530 27-442 S390A): as the sequence (P24530 27-442 V389A) above, with A363V, S364A counted along it
# Chain of ETBR M296A (human) (P24530 27-442 M296A): as the sequence (P24530 27-442 V389A) above, with M270A, A363V counted along it
# Chain of ETBR V325A (human) (P24530 27-442 V325A): as the sequence (P24530 27-442 V389A) above, with V299A, A363V counted along it
# Chain of ETBR R318A (human) (P24530 27-442 R318A): as the sequence (P24530 27-442 V389A) above, with R292A, A363V counted along it
# Chain of ETBR T324A (human) (P24530 27-442 T324A): as the sequence (P24530 27-442 V389A) above, with T298A, A363V counted along it
substance,measurement,setting,value
Gαi1 G352A (LgBiT-inserted NanoBiT construct) (from UniProt P63096 1-354) (natural protein),"NanoBiT Gi-protein dissociation assay, ET-1-induced, HEK293A cells, mutant Gαi against wild type",[1],50 % decrease
Gαi1 K345A (LgBiT-inserted NanoBiT construct) (from UniProt P63096 1-354) (natural protein),"NanoBiT Gi-protein dissociation assay, ET-1-induced, HEK293A cells, mutant Gαi against wild type",[1],50 % decrease
LgBiT-inserted Gαi1 C351A (from UniProt P63096 1-354) (natural protein),"Supplementary Table 1f: Emax, %WT, of the ET-1 concentration–response in the NanoBiT Gi-protein dissociation assay, HEK293A cells",[2],87 % of WT
LgBiT-inserted Gαi1 D341A (from UniProt P63096 1-354) (natural protein),"Supplementary Table 1f: Emax, %WT, of the ET-1 concentration–response in the NanoBiT Gi-protein dissociation assay, HEK293A cells",[2],92.1 % of WT
LgBiT-inserted Gαi1 D350A (from UniProt P63096 1-354) (natural protein),"Supplementary Table 1f: Emax, %WT, of the ET-1 concentration–response in the NanoBiT Gi-protein dissociation assay, HEK293A cells",[2],92.2 % of WT
LgBiT-inserted Gαi1 F354A (from UniProt P63096 1-354) (natural protein),"Supplementary Table 1f: Emax, %WT, of the ET-1 concentration–response in the NanoBiT Gi-protein dissociation assay, HEK293A cells",[2],87.8 % of WT
LgBiT-inserted Gαi1 G352A (from UniProt P63096 1-354) (natural protein),"Supplementary Table 1f: Emax, %WT, of the ET-1 concentration–response in the NanoBiT Gi-protein dissociation assay, HEK293A cells",[2],61.8 % of WT
LgBiT-inserted Gαi1 K345A (from UniProt P63096 1-354) (natural protein),"Supplementary Table 1f: Emax, %WT, of the ET-1 concentration–response in the NanoBiT Gi-protein dissociation assay, HEK293A cells",[2],48.9 % of WT
LgBiT-inserted Gαi1 L353A (from UniProt P63096 1-354) (natural protein),"Supplementary Table 1f: Emax, %WT, of the ET-1 concentration–response in the NanoBiT Gi-protein dissociation assay, HEK293A cells",[2],7.8 % of WT
LgBiT-inserted Gαi1 N347A (from UniProt P63096 1-354) (natural protein),"Supplementary Table 1f: Emax, %WT, of the ET-1 concentration–response in the NanoBiT Gi-protein dissociation assay, HEK293A cells",[2],96.5 % of WT
"LgBiT-inserted Gαi1, wild type (NanoBiT G-protein construct) (from UniProt P63096 1-354) (natural protein)","Supplementary Table 1e: Emax, %WT, of the ET-1 concentration–response in the NanoBiT Gi-protein dissociation assay, HEK293A cells",[3],90.2 % of WT
same,"Supplementary Table 1e: Emax, %WT, of the ET-1 concentration–response in the NanoBiT Gi-protein dissociation assay, HEK293A cells",[4],91.2 % of WT
same,"Supplementary Table 1d: Emax, %WT, of the ET-1 concentration–response in the NanoBiT Gi-protein dissociation assay, HEK293A cells",[5],36.2 % of WT
same,"Supplementary Table 1d: Emax, %WT, of the ET-1 concentration–response in the NanoBiT Gi-protein dissociation assay, HEK293A cells",[6],46.9 % of WT
same,"Supplementary Table 1c: Emax, %WT, of the ET-1 concentration–response in the NanoBiT Gi-protein dissociation assay, HEK293A cells",[7],54.6 % of WT
same,"Supplementary Table 1e: Emax, %WT, of the ET-1 concentration–response in the NanoBiT Gi-protein dissociation assay, HEK293A cells",[8],88.2 % of WT
same,"Supplementary Table 1c: Emax, %WT, of the ET-1 concentration–response in the NanoBiT Gi-protein dissociation assay, HEK293A cells",[9],28.8 % of WT
same,"Supplementary Table 1e: Emax, %WT, of the ET-1 concentration–response in the NanoBiT Gi-protein dissociation assay, HEK293A cells",[10],77.3 % of WT
same,"Supplementary Table 1d: Emax, %WT, of the ET-1 concentration–response in the NanoBiT Gi-protein dissociation assay, HEK293A cells",[11],63.5 % of WT
same,"Supplementary Table 1e: Emax, %WT, of the ET-1 concentration–response in the NanoBiT Gi-protein dissociation assay, HEK293A cells",[12],96.3 % of WT
same,"Supplementary Table 1c: Emax, %WT, of the ET-1 concentration–response in the NanoBiT Gi-protein dissociation assay, HEK293A cells; WT (35% plasmid)",[2],62.9 % of WT
same,"Supplementary Table 1c: Emax, %WT, of the ET-1 concentration–response in the NanoBiT Gi-protein dissociation assay, HEK293A cells; WT (50% plasmid)",[2],76.5 % of WT
same,"Supplementary Table 1c: Emax, %WT, of the ET-1 concentration–response in the NanoBiT Gi-protein dissociation assay, HEK293A cells; WT (100% plasmid)",[2],100 % of WT
same,"Supplementary Table 1f: Emax, %WT, of the ET-1 concentration–response in the NanoBiT Gi-protein dissociation assay, HEK293A cells; WT Gαi",[2],100 % of WT
same,"Supplementary Table 1d (same row in 1e): Emax, %WT, of the ET-1 concentration–response in the NanoBiT Gi-protein dissociation assay, HEK293A cells; WT (100% plasmid)",[2],100 % of WT
